# Measured values published in paper PMC8501021, “Nuclear transporter Importin-13 plays a key role in the oxidative stress transcriptional response” (Nature Communications, 2021).
# B1: DSRED-IPO13 (Importin-13 fused to the DsRed2 fluorescent protein) (natural protein, UniProt O94829 1-963, looked up)
# chain: MERREEQPGAAGAGAAPALDFTVENVEKALHQLYYDPNIENKNLAQKWLMQAQVSPQAWHFSWQLLQPDKVPEIQYFGASALHIKISRYWSDIPTDQYESLKAQLFTQITRFASGSKIVLTRLCVALASLALSMMPDAWPCAVADMVRLFQAEDSPVDGQGRCLALLELLTVLPEEFQTSRLPQYRKGLVRTSLAVECGAVFPLLEQLLQQPSSPSCVRQKVLKCFSSWVQLEVPLQDCEALIQAAFAALQDSELFDSSVEAIVNAISQPDAQRYVNTLLKLIPLVLGLQEQLRQAVQNGDMETSHGICRIAVALGENHSRALLDQVEHWQSFLALVNMIMFCTGIPGHYPVNETTSSLTLTFWYTLQDDILSFEAEKQAVYQQVYRPVYFQLVDVLLHKAQFPSDEEYGFWSSDEKEQFRIYRVDISDTLMYVYEMLGAELLSNLYDKLGRLLTSSEEPYSWQHTEALLYGFQSIAETIDVNYSDVVPGLIGLIPRISISNVQLADTVMFTIGALSEWLADHPVMINSVLPLVLHALGNPELSVSSVSTLKKICRECKYDLPPYAANIVAVSQDVLMKQIHKTSQCMWLMQALGFLLSALQVEEILKNLHSLISPYIQQLEKLAEEIPNPSNKLAIVHILGLLSNLFTTLDISHHEDDHEGPELRKLPVPQGPNPVVVVLQQVFQLIQKVLSKWLNDAQVVEAVCAIFEKSVKTLLDDFAPMVPQLCEMLGRMYSTIPQASALDLTRQLVHIFAHEPAHFPPIEALFLLVTSVTLTLFQQGPRDHPDIVDSFMQLLAQALKRKPDLFLCERLDVKAVFQCAVLALKFPEAPTVKASCGFFTELLPRCGEVESVGKVVQEDGRMLLIAVLEAIGGQASRSLMDCFADILFALNKHCFSLLSMWIKEALQPPGFPSARLSPEQKDTFSQQILRERVNKRRVKEMVKEFTLLCRGLHGTDYTADY
# notes: Importin-13 (IPO13); PCR generated IPO13 insert put into pDsRed2-C1 at EcoRI and SmaI; also called dsRed2-IPO13; DSRED-tagged IPO13; source: HeLa, transfected (pDsRed2-fused IPO13), in lysate
# What was measured:
# [1] = target: T1, GFP-SP1 (GFP fused to specificity protein 1) (UniProt P08047 1-785); assay: co-IP; HeLa cells co-expressing GFP, GFP-KLF4 or GFP-SP1 with DSRED-IPO13; treated with or without 125 uM H2O2 for 1 h before lysis; lysates with or without GTPgammaS (1.7 mM, 20 min on ice); precipitated with GFP-Trap resin; Western blot with anti-GFP and anti-IPO13; conditions: partners not purified
# T1 construct: Specificity protein 1 (SP1); plasmid from Jan-Jong Hung (National Cheng Kung University, Taiwan); Construct was a gift; also called GFP-tagged SP1; source: HeLa, transfected, in lysate
# [2] = target: T2, GFP-KLF4 (eGFP fused to full-length mouse Kruppel like factor 4) (mouse, UniProt Q60793 1-483); assay: as above; conditions: partners not purified
# T2 construct: Kruppel like factor 4 (KLF4), mouse, full length; inserted in-frame at BamHI and HindIII of pEGFP-C1, C-terminal to eGFP; also called GFP-tagged KLF4; source: HeLa, transfected (pEGFP-C1 construct), in lysate; not shown: eGFP, N-terminal, kept
# T2 sequence (Q60793 whole entry, the tested form may be a part): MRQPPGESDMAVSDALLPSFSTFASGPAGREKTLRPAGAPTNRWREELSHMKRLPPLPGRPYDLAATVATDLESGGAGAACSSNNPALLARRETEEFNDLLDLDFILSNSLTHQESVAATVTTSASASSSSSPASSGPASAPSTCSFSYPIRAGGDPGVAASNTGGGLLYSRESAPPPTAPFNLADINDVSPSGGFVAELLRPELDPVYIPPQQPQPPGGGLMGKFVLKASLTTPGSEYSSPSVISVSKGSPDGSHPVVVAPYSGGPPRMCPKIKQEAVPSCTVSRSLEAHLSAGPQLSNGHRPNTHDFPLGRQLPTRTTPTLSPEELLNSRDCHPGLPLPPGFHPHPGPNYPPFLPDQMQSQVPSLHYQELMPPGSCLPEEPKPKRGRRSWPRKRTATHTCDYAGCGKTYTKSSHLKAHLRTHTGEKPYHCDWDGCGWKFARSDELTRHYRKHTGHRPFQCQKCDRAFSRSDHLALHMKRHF
# T1 sequence (P08047 whole entry, the tested form may be a part): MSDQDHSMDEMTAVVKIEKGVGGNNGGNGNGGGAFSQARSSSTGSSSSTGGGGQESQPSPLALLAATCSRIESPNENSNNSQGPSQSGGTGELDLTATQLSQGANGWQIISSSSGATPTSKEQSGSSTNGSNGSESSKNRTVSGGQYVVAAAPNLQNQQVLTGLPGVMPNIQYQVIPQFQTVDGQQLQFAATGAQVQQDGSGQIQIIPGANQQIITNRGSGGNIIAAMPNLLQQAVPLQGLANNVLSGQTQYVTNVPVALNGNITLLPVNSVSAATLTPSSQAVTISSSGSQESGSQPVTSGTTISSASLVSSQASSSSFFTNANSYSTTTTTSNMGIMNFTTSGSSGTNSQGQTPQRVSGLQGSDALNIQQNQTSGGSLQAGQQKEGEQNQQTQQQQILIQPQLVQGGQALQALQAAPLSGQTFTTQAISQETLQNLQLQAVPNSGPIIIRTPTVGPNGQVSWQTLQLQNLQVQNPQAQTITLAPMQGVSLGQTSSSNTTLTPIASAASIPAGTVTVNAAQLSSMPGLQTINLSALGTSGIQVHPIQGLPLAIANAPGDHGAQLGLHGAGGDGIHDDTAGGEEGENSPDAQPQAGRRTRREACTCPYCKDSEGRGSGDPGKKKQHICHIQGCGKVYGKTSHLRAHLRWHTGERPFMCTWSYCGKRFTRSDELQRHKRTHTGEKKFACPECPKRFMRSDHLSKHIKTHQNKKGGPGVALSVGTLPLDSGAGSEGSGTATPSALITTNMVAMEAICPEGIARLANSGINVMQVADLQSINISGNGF
binder,measurement,setting,value
B1,"fold increase in co-precipitation with GTPgammaS against no addition, H2O2 treated cells",[1],~2 fold
same,"fold increase in co-precipitation with GTPgammaS against no addition, H2O2 treated cells",[2],~2 fold
